Assay results as given in patent US20070020717A1 (ARBOR VITA, published 2007).

B1: GST-PDZ fusion protein, PDZ domain of SHANK3 (XM_037493 GID: 51476100) (other)
chain: SDYVIDDKVAVLQKRDHEGFGFVLRGAKAETPIEEFTPTPAFPALQYLESVDVEGVAWRAGLRTGDFLIEVNGVNVVKVGHKQVVALIRQGGNRLVMKVVSVTRKPEEDG
notes: also called SHANK3 PDZ domain
B2: GST-PDZ fusion protein, PDZ domain of SHANK2 (GID 6049185) (other)
chain: ILEEKTVVLQKKDNEGFGFVLRGAKADTPIEEFTPTPAFPALQYLESVDEGGVAWQAGLRTGDFLIEVNNENVVKVGHRQVVNMIRQGGNHLVLKVVTVTRNLDPDDNSS
notes: also called SHANK2 PDZ domain
B3: GST-PDZ fusion protein, PDZ domain of MAST2 (Accession no. AB047005) (other)
chain: ISALGSMRPPIIIHRAGKKYGFTLRAIRVYMGDSDVYTVHHMVWHVEDGGPASEAGLRQGDLITHVNGEPVHGLVHTEVVELILKSGNKVAISTTPLENSS
notes: also called MAST2 PDZ domain
B4: GST-PDZ fusion protein, PDZ domain of SHANK1 (GID 7025450) (other)
chain: ILKEKTVLLQKKDSEGFGFVLRGAKAQTPIEEFTPTPAFPALQYLESVDEGGVAWRAGLRMGDFLIEVNGQNVVKVGHRQVVNMIRQGGNTLMVKVVMVTRHPDMDEAVQNSS
notes: also called SHANK1 PDZ domain

Columns and labels:
[1] = target: T1, Peptide 1956 (N-terminally biotinylated Tat-COX-2 peptide); experiment: ELISA titration of the biotinylated peptide on captured GST-PDZ
T1 construct: also called PL of COX-2

[2] = target: T1, Peptide 1956 (N-terminally biotinylated …); experiment: ELISA (modified G assay): GST-PDZ captured by anti-GST antibody, biotinylated peptide, HRP-streptavidin

Row | Binder | binding result [1] | binding result [2]
1 | B1 | binds | 
2 | B2 | binds | 
3 | B3 |  | binds
4 | B4 | binds | 
